Source: article PMC5928183, “A Role for the Non-Receptor Tyrosine Kinase Abl2/Arg in Experimental Neuroinflammation” (Journal of Neuroimmune Pharmacology, 2018)
Positions count from the first letter of the chain named.

Molecular target: actin filaments (F-actin) from chicken skeletal muscle (chicken, UniProt P68139 1-377)
Test: co-sedimentation; increasing amounts of Arg/Arg V1030M incubated with 1 μM actin filaments; 40 mM Hepes pH 7.25, 150 mM KCl, 2 mM MgCl2, 0.01% NP40, 4.5% glycerol; supernatant and pellet on SDS-PAGE, Coomassie R250 and densitometry; three trials
Details: both partners purified

B1: Arg (Abl2/Arg non-receptor tyrosine kinase), valine at position 1030 (enzyme)
chain: MGQQVGRVGEAPGLQQPQPRGIRGSSAARPSGRRRDPAGRTADAGFNVFTQHDHFASCVEDGFEGDKTGGSSPEVLHRPFGCDAESQALNEAIRWSSKENLLGATESDPNLFVALYDFVASGDNTLSITKGEKLRVLGYNQNGEWSEVRSKNGQGWVPSNYITPVNSLEKHSWYHGPVSRSAAEYLLSSLINGSFLVRESESSPGQLSISLRYEGRVYHYRINTTTDSKVYVTAESRFSTLAELVHHHSTVADGLVTTLHYPAPKCNKPTVYGVSPIHDKWEMERTDITMKHKLGGGQYGEVYVGVWKKYSLTVAVKTFKEDTMEVEEFLKEAAVMKEIKHPNLVQLLGVCTLEPPFYIVTEYMPYGNLLDYLRECSREEVTAVVLLYMATQISSAMEYLEKKNFIHRDLAARNCLVGENHVVKVADFGLSRLMTGDTYTAHAGAKFPIKWTAPESLAYNTFSIKSDVWAFGVLLWEIATYGMSPYPGIDLSQVYDLLEKGYRMEQPEGCPPKVYELMRACWKWSPADRPSFAETHQAFETMFHDSSISEEVAEELGRTASSSSVVPYLPRLPLLPSKTRTLRKQGENKENLDGGLDAAESLASSSAPAGFIRSTQASSGSPALPRKQRDKSPSSLLEDAKETCFTRDRKGGFFSSFMKKRNAPTPPKRSSSFREMENQPHKKYELTGNFSPVASLQNADGFSVAPSQQEPNLVPAKCYGGSFAQRNLCADDDSGGGGGSGTAGGGWSGITGFFTPRLIKKTLGLRAGKPTASDDTSKPFPRSNSTSSMSSGLPEQDRMAMTLPRNCQRSKLQLERTVSTSSQPEENVDRANDMLPKKSEEGAAPARERPKAKLLPRGATALPLRAPDPAITESDSPGVGVAGVAAAPKGKERNGGTRLGVAGVPEDGEQLGWSSPAKAVAVLPTTHNHKVPVLISPTLKHTPADVQLIGTDSQGNKFKLLSEHQVTSSGDKDRPRRVKPKCAPPPPPVMRLLQHPSTCSDPEEEPTAPPAGQHTPETQEGGKKAAPGPVPSSGKPGRPVMPPPQVPLPTSSISPAKMANGTAGTKVALRKTKQAAEKISADKISKEALLECADLLSSAITEPVPNSQLVDTGHQLLDYCSGYVDSIPQTRNKFAFREAVSKLELSLQELQVSSTAAGVPGTNPVLNNLLSCVQEISDVVQR
notes: SNP rs30466582); neither tags nor construct limits are stated here; also called Arg_1030V; Abelson related gene; source: Hi5 cells via baculoviral vectors, purified as previously described (Wang et al., 2001)
How did the Kd turn out when B1 was run?
The Kd was 710 ± 500 nM.

B2: Arg V1030M (enzyme)
chain: B1 chain with V1030M
notes: SNP rs30466582); neither tags nor construct limits are stated here; also called Arg_1030M; source: Hi5 cells via baculoviral vectors, purified as previously described (Wang et al., 2001)
Which Kd does the source give for B2 here?
The Kd was 860 ± 640 nM.
